Results: patent publication US20260028399A1

Columns and labels:
human CD96 (human) [1] = target: T1, human CD96 (human) (UniProt P40200); experiment: phage ELISA on coated CD96 (4 ug/ml), phage 3 x 10^9 pfu/ml, anti-M13-HRP/TMB
T1 sequence: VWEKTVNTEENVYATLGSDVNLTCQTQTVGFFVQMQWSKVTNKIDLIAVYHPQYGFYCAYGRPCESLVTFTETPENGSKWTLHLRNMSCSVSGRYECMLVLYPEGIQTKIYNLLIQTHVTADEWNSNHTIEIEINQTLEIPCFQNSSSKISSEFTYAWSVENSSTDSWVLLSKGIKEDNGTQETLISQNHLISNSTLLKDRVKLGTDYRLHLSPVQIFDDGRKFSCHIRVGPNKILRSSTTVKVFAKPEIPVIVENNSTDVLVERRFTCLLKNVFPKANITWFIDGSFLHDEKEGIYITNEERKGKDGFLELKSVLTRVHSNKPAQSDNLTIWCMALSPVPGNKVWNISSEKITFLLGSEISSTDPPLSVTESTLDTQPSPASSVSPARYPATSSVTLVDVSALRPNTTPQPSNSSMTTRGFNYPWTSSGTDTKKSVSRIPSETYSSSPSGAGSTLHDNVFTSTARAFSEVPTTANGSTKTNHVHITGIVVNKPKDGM

human CD96 (human) [2] = target: T1, human CD96 (human); experiment: phage ELISA on coated CD96 (4 ug/ml), phage 6 x 10^9 pfu/ml, anti-M13-HRP/TMB
human CD96 (human) [3] = target: T1, human CD96 (human); experiment: phage ELISA on coated CD96 (4 ug/ml), phage 9 x 10^7 pfu/ml, anti-M13-HRP/TMB
human CD96 (human) [4] = target: T1, human CD96 (human); experiment: phage ELISA on coated CD96 (4 ug/ml), phage 1 x 10^11 pfu/ml, anti-M13-HRP/TMB
human CD96 (human) [5] = target: T1, human CD96 (human); experiment: phage ELISA on coated CD96 (4 ug/ml), phage 5 x 10^10 pfu/ml, anti-M13-HRP/TMB
human TIGIT (human) [6] = target: T2, human TIGIT (human) (UniProt Q495A1); experiment: phage ELISA on coated TIGIT (4 ug/ml), phage 3 x 10^9 pfu/ml, anti-M13-HRP/TMB
T2 sequence: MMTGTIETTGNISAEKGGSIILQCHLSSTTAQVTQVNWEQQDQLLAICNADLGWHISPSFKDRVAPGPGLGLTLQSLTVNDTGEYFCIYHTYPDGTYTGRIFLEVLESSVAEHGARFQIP

human TIGIT (human) [7] = target: T2, human TIGIT (human); experiment: phage ELISA on coated TIGIT (4 ug/ml), phage 6 x 10^9 pfu/ml, anti-M13-HRP/TMB
human TIGIT (human) [8] = target: T2, human TIGIT (human); experiment: phage ELISA on coated TIGIT (4 ug/ml), phage 9 x 10^7 pfu/ml, anti-M13-HRP/TMB
human CD96 (human) [9] = target: T1, human CD96 (human); experiment: phage ELISA on coated CD96 (4 ug/ml), phage 1.5 x 10^9 pfu/ml, anti-M13-HRP/TMB
human CD96 (human) [10] = target: T1, human CD96 (human); experiment: phage ELISA on coated CD96 (4 ug/ml), phage 3.7 x 10^8 pfu/ml, anti-M13-HRP/TMB
human CD96 (human) [11] = target: T1, human CD96 (human); experiment: phage ELISA on coated CD96 (4 ug/ml), phage 7.5 x 10^8 pfu/ml, anti-M13-HRP/TMB
human TIGIT (human) [12] = target: T2, human TIGIT (human); experiment: phage ELISA on coated TIGIT (4 ug/ml), phage 1 x 10^11 pfu/ml, anti-M13-HRP/TMB
human TIGIT (human) [13] = target: T2, human TIGIT (human); experiment: phage ELISA on coated TIGIT (4 ug/ml), phage 5 x 10^10 pfu/ml, anti-M13-HRP/TMB
human CD96 (human) [14] = target: T1, human CD96 (human); experiment: phage ELISA on coated CD96 (4 ug/ml), phage 1.2 x 10^10 pfu/ml, anti-M13-HRP/TMB
human CD96 (human) [15] = target: T1, human CD96 (human); experiment: phage ELISA on coated CD96 (4 ug/ml), phage 2.5 x 10^10 pfu/ml, anti-M13-HRP/TMB
human TIGIT (human) [16] = target: T2, human TIGIT (human); experiment: phage ELISA on coated TIGIT (4 ug/ml), phage 1.5 x 10^9 pfu/ml, anti-M13-HRP/TMB
human TIGIT (human) [17] = target: T2, human TIGIT (human); experiment: phage ELISA on coated TIGIT (4 ug/ml), phage 3.7 x 10^8 pfu/ml, anti-M13-HRP/TMB
human TIGIT (human) [18] = target: T2, human TIGIT (human); experiment: phage ELISA on coated TIGIT (4 ug/ml), phage 7.5 x 10^8 pfu/ml, anti-M13-HRP/TMB
human TIGIT (human) [19] = target: T2, human TIGIT (human); experiment: phage ELISA on coated TIGIT (4 ug/ml), phage 1.2 x 10^10 pfu/ml, anti-M13-HRP/TMB
human TIGIT (human) [20] = target: T2, human TIGIT (human); experiment: phage ELISA on coated TIGIT (4 ug/ml), phage 2.5 x 10^10 pfu/ml, anti-M13-HRP/TMB
human CD96 (human) [21] = target: T1, human CD96 (human); experiment: phage ELISA on coated CD96 (4 ug/ml), phage 4.8 x 10^8 pfu/ml (so in the source), anti-M13-HRP/TMB
human CD96 (human) [22] = target: T1, human CD96 (human); experiment: phage ELISA on coated CD96 (4 ug/ml), phage 0 pfu/ml (no phage, background), anti-M13-HRP/TMB
human TIGIT (human) [23] = target: T2, human TIGIT (human); experiment: phage ELISA on coated TIGIT (4 ug/ml), phage 4.8 x 10^8 pfu/ml (so in the source), anti-M13-HRP/TMB
human TIGIT (human) [24] = target: T2, human TIGIT (human); experiment: phage ELISA on coated TIGIT (4 ug/ml), phage 0 pfu/ml (no phage, background), anti-M13-HRP/TMB
BSA [25] = target: BSA (UniProt P02769); experiment: phage ELISA on coated BSA, phage 3 x 10^9 pfu/ml, anti-M13-HRP/TMB
UniProt P02769, sequence (P02769 25-607 limits assumed): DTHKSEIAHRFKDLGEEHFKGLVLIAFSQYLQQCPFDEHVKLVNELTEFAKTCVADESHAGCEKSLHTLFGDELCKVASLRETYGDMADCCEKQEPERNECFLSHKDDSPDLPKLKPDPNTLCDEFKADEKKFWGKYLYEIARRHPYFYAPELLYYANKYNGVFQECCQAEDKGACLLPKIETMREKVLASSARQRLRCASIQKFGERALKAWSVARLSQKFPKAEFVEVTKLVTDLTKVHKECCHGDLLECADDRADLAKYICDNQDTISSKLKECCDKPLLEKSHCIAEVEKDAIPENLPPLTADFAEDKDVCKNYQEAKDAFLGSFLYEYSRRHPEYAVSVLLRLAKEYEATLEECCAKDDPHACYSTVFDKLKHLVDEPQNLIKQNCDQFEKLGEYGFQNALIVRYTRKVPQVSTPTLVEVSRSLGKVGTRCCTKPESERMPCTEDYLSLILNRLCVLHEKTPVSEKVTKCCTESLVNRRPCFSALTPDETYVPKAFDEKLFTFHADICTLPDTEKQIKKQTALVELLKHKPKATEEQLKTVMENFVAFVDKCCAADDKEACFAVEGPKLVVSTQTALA

BSA [26] = target: BSA (UniProt P02769); experiment: phage ELISA on coated BSA, phage 6 x 10^9 pfu/ml, anti-M13-HRP/TMB
BSA [27] = target: BSA (UniProt P02769); experiment: phage ELISA on coated BSA, phage 9 x 10^7 pfu/ml, anti-M13-HRP/TMB
BSA [28] = target: BSA (UniProt P02769); experiment: phage ELISA on coated BSA, phage 1 x 10^11 pfu/ml, anti-M13-HRP/TMB
BSA [29] = target: BSA (UniProt P02769); experiment: phage ELISA on coated BSA, phage 5 x 10^10 pfu/ml, anti-M13-HRP/TMB
BSA [30] = target: BSA (UniProt P02769); experiment: phage ELISA on coated BSA, phage 1.5 x 10^9 pfu/ml, anti-M13-HRP/TMB
BSA [31] = target: BSA (UniProt P02769); experiment: phage ELISA on coated BSA, phage 3.7 x 10^8 pfu/ml, anti-M13-HRP/TMB
BSA [32] = target: BSA (UniProt P02769); experiment: phage ELISA on coated BSA, phage 7.5 x 10^8 pfu/ml, anti-M13-HRP/TMB
BSA [33] = target: BSA (UniProt P02769); experiment: phage ELISA on coated BSA, phage 1.2 x 10^10 pfu/ml, anti-M13-HRP/TMB
BSA [34] = target: BSA (UniProt P02769); experiment: phage ELISA on coated BSA, phage 2.5 x 10^10 pfu/ml, anti-M13-HRP/TMB
BSA [35] = target: BSA (UniProt P02769); experiment: phage ELISA on coated BSA, phage 4.8 x 10^8 pfu/ml (so in the source), anti-M13-HRP/TMB
BSA [36] = target: BSA (UniProt P02769); experiment: phage ELISA on coated BSA, phage 0 pfu/ml (no phage, background), anti-M13-HRP/TMB

## irrelevant phage
Human CD96 (human) [1]
  phage ELISA signal: 0.02
Human CD96 (human) [2]
  phage ELISA signal: 0.08
Human CD96 (human) [3]
  phage ELISA signal: 0.03
Human CD96 (human) [4]
  phage ELISA signal: 0.59
Human CD96 (human) [5]
  phage ELISA signal: 0.31
Human TIGIT (human) [6]
  phage ELISA signal: 0.07
Human TIGIT (human) [7]
  phage ELISA signal: 0.09
Human TIGIT (human) [8]
  phage ELISA signal: 0.04
Human CD96 (human) [9]
  phage ELISA signal: 0.02
Human CD96 (human) [10]
  phage ELISA signal: 0.01
Human CD96 (human) [11]
  phage ELISA signal: 0.02
Human TIGIT (human) [12]
  phage ELISA signal: 0.24
Human TIGIT (human) [13]
  phage ELISA signal: 0.31
Human CD96 (human) [14]
  phage ELISA signal: 0.08
Human CD96 (human) [15]
  phage ELISA signal: 0.18
Human TIGIT (human) [16]
  phage ELISA signal: 0.04
Human TIGIT (human) [17]
  phage ELISA signal: 0.03
Human TIGIT (human) [18]
  phage ELISA signal: 0.03
Human TIGIT (human) [19]
  phage ELISA signal: 0.15
Human TIGIT (human) [20]
  phage ELISA signal: 0.25
Human CD96 (human) [21]
  phage ELISA signal: 0.02
Human CD96 (human) [22]
  phage ELISA signal: 0.05
Human TIGIT (human) [23]
  phage ELISA signal: 0.03
Human TIGIT (human) [24]
  phage ELISA signal: 0.04

B1: anti-CD96 clone G1 scFv (R7P1-G1), displayed on phage (scFv, part only; not given: linker, domain order, phage fusion, V domains shown, not shown: another chain or arm of the molecule; large carriers; small tags and cut ends)
VH: EVQLVESGGDLVKPAGSLRLSCVASGFPFSDSDMNWVRQAPGKGLQWVAGIDEGATDTGYADAVKGRFTISRDDAKNTLYLQMNSLRADDTAMYYCAAGGNFAYWGQGTLVTVSS
VL: DIVMTQTPLSLSVSPGEPASISCKASQSLLHSNGNTYLYWFRQKPGQSPQGLIYLVSKRFSWVPDRFSGSGSGTDFTLRISRVEADDAGLYYCGQGIQYPYTFSQGTKLEIK
BSA [25]
  phage ELISA signal: 0.02
BSA [26]
  phage ELISA signal: 0.02
BSA [27]
  phage ELISA signal: 0.03
BSA [28]
  phage ELISA signal: 0.06
BSA [29]
  phage ELISA signal: 0.04
BSA [30]
  phage ELISA signal: 0.02
BSA [31]
  phage ELISA signal: 0.02
BSA [32]
  phage ELISA signal: 0.01
BSA [33]
  phage ELISA signal: 0.02
BSA [34]
  phage ELISA signal: 0.03
Human CD96 (human) [1]
  phage ELISA signal: 2.11
Human CD96 (human) [2]
  phage ELISA signal: 2.28
Human CD96 (human) [3]
  phage ELISA signal: 0.38
Human CD96 (human) [4]
  phage ELISA signal: 2.61
Human CD96 (human) [5]
  phage ELISA signal: 2.68
Human CD96 (human) [9]
  phage ELISA signal: 1.73
Human CD96 (human) [10]
  phage ELISA signal: 0.95
Human CD96 (human) [11]
  phage ELISA signal: 1.36
Human CD96 (human) [14]
  phage ELISA signal: 2.59
Human CD96 (human) [15]
  phage ELISA signal: 2.65
BSA [35]
  phage ELISA signal: 0.01
BSA [36]
  phage ELISA signal: 0.05
Human CD96 (human) [21]
  phage ELISA signal: 0.63
Human CD96 (human) [22]
  phage ELISA signal: 0.05

B2: anti-TIGIT clone C2 scFv (R8P1-C2), displayed on phage (scFv, part only; not given: linker, domain order, phage fusion, V domains shown, not shown: another chain or arm of the molecule; large carriers; small tags and cut ends)
VH: GVQLVESGGDLVKPAGSLRLSCVASGFTFSNYGMSWVRQAPGKGLQWVASIASGGSATAYADAVKGRFTLSRDDAKNTLYLQMNNLRTEDTSMYYCVAPGFQYWGQGTLVTVSS
VL: DIVMTQTPLSLSVSPGETASISCKASQSLLHSNGNTYLFWFRQKSGQSPQRLIYKVSNRDPGVPDRLSGSGSGTDFTLRISRVEADDAGVYYCGQGIQIPRTFGQGTKLEIK
BSA [25]
  phage ELISA signal: 0.02
BSA [26]
  phage ELISA signal: 0.03
BSA [27]
  phage ELISA signal: 0.03
BSA [28]
  phage ELISA signal: 0.07
BSA [29]
  phage ELISA signal: 0.04
BSA [30]
  phage ELISA signal: 0.02
BSA [31]
  phage ELISA signal: 0.02
BSA [32]
  phage ELISA signal: 0.01
BSA [33]
  phage ELISA signal: 0.04
BSA [34]
  phage ELISA signal: 0.04
Human TIGIT (human) [6]
  phage ELISA signal: 2.52
Human TIGIT (human) [7]
  phage ELISA signal: 2.58
Human TIGIT (human) [8]
  phage ELISA signal: 0.79
Human TIGIT (human) [12]
  phage ELISA signal: 2.05
Human TIGIT (human) [13]
  phage ELISA signal: 2.53
Human TIGIT (human) [16]
  phage ELISA signal: 2.34
Human TIGIT (human) [17]
  phage ELISA signal: 1.61
Human TIGIT (human) [18]
  phage ELISA signal: 1.99
BSA [35]
  phage ELISA signal: 0.02
Human TIGIT (human) [19]
  phage ELISA signal: 2.54
Human TIGIT (human) [20]
  phage ELISA signal: 2.66
BSA [36]
  phage ELISA signal: 0.04
Human TIGIT (human) [23]
  phage ELISA signal: 1.21
Human TIGIT (human) [24]
  phage ELISA signal: 0.03
